# B1: TCR clone D146W8 (native clone on the T cells of co-culture well D146W8) (TCR, V domains shown)
# V domain 1: QKEVEQNSGPLSVPEGAIASLNCTYSDRGSQSFFWYRQYSGKSPELIMFIYSNGDKEDGRFTAQLNKASQYVSLLIRDSQPSDSATYLCAVKGAGGFKTIFGAGTRLFVKA
# V domain 2: DTGVSQNPRHKITKRGQNVTFRCDPISEHNRLYWYRQTLGQGPEFLTYFQNEAQLEKSRLLSDRFSAERPKGSFSTLEIQRTEQGDSAMYLCASSPGNTEAFFGQGTRLTVV
# notes: also called D146W8 TCR; not shown: constant region of the native human clone
# Target: T1, HLA-A*02:01 CD22 p228-236 tetramer (human)
# T1 construct: Bought monomer, loaded by UV peptide exchange and made into a tetramer; The streptavidin and label are not described; also called p-MHC tetramer
# Assay: p-MHC tetramer staining of T cells of co-culture well D146W8, flow cytometry
binder,measurement,value
B1,binding result,binds
